Here are results for one substance from patent publication US20020082410.

For this data set, the target named is Ipf1 (RSV-Ipf1 expression vector) (Mus musculus) (UniProt P52946). As to the kind of experiment: cell_activity. To be noted: betaTC1 cells with RSV-Ipf1; in CHO cells Ipf1 raised activity to the betaTC1 level (about 3-fold over CHO).

“5x P1 site linked to beta-globin TATA box reporter” showed an activity of 2 fold.
